2 proteins from patent US20090203035A1 (University of California, published 2009) can be followed below.

This data set deals with the molecule itself. The experiment in a line: gel filtration (self-association / dimerization check). Background: Size exclusion chromatography separates by hydrodynamic size, large species first.

B1: TagRFP-T (other)
chain: MVSKGEELIKENMHMKLYMEGTVNNHHFKCTSEGEGKPYEGTQTMRIKVVEGGPLPFAFDILATSFMYGSRTFINHTQGIPDFFKQSFPEGFTWERVTTYEDGGVLTATQDTSLQDGCLIYNVKIRGVNFPSNGPVMQKKTLGWEANTEMLYPADGGLEGRTDMALKLVGGGHLICNFKTTYRSKKPAKNLKMPGVYYVDHRLERIKEADKETYVEQHEVAVARYCDLPSKLGHKLNGMDELYK
notes: Engineered fluorescent protein, the S158T variant of TagRFP (eqFP578 lineage); also called TagRFP S158T; not shown: N-terminal 6xHis tag and linker encoded by the pBAD expression vector
In the case of B1, the binding result is given as “no binding”.

B2: mOrange2 (other)
chain: MVSKGEENNMAIIKEFMRFKVRMEGSVNGHEFEIEGEGEGRPYEGFQTAKLKVTKGGPLPFAWDILSPHFTYGSKAYVKHPADIPDYFKLSFPEGFKWERVMNYEDGGVVTVTQDSSLQDGEFIYKVKLRGTNFPSDGPVMQKKTMGWEASSERMYPEDGALKGKIKMRLKLKDGGHYTSEVKTTYKAKKPVQLPGAYIVDIKLDITSHNEDYTIVEQYERAEGRHSTGGMDELYK
notes: Engineered monomeric orange fluorescent protein derived from mOrange (DsRed lineage); also called mOrange Q64H/F99Y/E160K/G196D; not shown: N-terminal 6xHis tag and linker encoded by the pBAD expression vector
On to B2, for which the binding result is on record as “no binding”.
